This data set is described as follows: label from the status in PepcDB records.
For “MVEEKVVEKGKERAVEVTKWRRVFDDYRAMSDEILRPDEPKKEKFLEAMRKYLTKQNWPFLLPYKLTLEACTKCGTCAEACTMYLGSGRKKIYSPVYRSDMLRKIYKKHFTLTGKLFGPLIGAKDPTEDDINALAESAYRCTVCRRCALACPFGLDNGLITRETRKIFADLGIVPDELKDNGVENQLKYGNAPKIPYEAFMDILEFIKEDIEDEKGVEVEIPVDKKGAKYLIMNNAGDYLAFTETVQGIVEIMNYVGEDWTLNSPKTGVNDIVNYGLFYSDEDLVRVMKAHVETAKKLDVEYLVVGECGHAYDSIAHFAKDLIPPEERPFKVISWMELLDQFIREGKLKLDKEKNPEPVTFHDSCKWGRTGGIYEEPRRILQAACKDFREMYPNREWNYCCGGGGGFAIMAKDDFLKFRMETYGKMKVQQLKQTGAKIIATICSNCKAQFREMINYYNLDMRFSGVSELVANALVYE”, the protein production entry was “failed”. The entry for “SDIVRKTIDNDISTKWRLKTLSEKLNLSEVTIRKKLENENTNFYRILLDARMQKAARLVLDSDTHINKVSYAVGMSSVSYFIKLFSDYYGLTPKQFHLKYKHRNTGEKAAFMLYN” is “failed”; for “MFEFILQLSLGILAVSTFLYVLRVIKGPSIPDRVVALDAIGINLIGITALVSILLNTTAYLEVILLIGILAFIGTVAFSKFLEKGEIIENDRSR” it is “failed”. For “MRSLWVFYRTAPDTIVFFDDSPTARFSTVVAFYNHRTGGPMSFAQRDPIGELSLLTHIFIKYREPYVTDGQCRVIVQSKRPIMSSIEQYSQKPFYAHKGTDESSQDTETTEDIVVKEGKHFWIEFDPPEEPFTDTSRRVLRLVRNVEQHRQPGYCTFSKSLFVERNGNDIFKPYRLYPTHNFEDKYFSSAEVKESASLYDLSSLKKNEIRPTLERYEEALKAEVLTPLRNALIPCMVEVYRREIGFESEPDKSLRNASYSSVLSWGSTLRFTLRLWDRIVSGQPLAQVKSEDWFEGTFEKVPSAVSQGARSAIRYYVSDKKLSRDYVLAQALPVYFKWAACREAIQSKLHEQKTDFFAVDTELDKTHVLSGDNVPAKIKKLLEEAAARRKDALSENTIQAYQHAIDHFKSFCERHGPKALPASPETLIAYFEHLAQNGYAESTIRKRRSAIRFLHERSMNESPTTSESVRRYFDDLRKTIPESRGHGQKDPILFHHLHQMSFDEEELSDLRDRAILYIGVATGLRDSGLIGLEMRDIFEKEGGVVYRIRDPKGEGDPGPERVSVPHEVPALTPSPNEALTAWIEAAGIESGAVFRSVDQYGNVGGDDGLSSGSISKDIVKPWMKSIGEDPSEYSCHSLRAGFVTQAILDGITEPRIAAQSRHKSIEALREYERPTNDMKNHMLKEMG”, the protein production entry is recorded as “failed”.

With “MAINLTPLIGFLPEFIISAIISGFLFQAITNDKTFVRPIIGGKKPEQKSILKKVSSRRKPVDMKEYERMKNKTRYQALLFNSNMHIISSSALTVSAWILLIYAMIGIGKSSIFMPTFGFKINFIVYALLVIIFSVAMISSFSQVVRLREIYRIIASVFAVLSVVIFFEIPAMKWLFYIFPKVIVSYIFIYFAGLFILFLCYSLWWKLAPKITFYVSFYSSILTYFAIVSLMIYNSIPKL”, the protein production entry is on record as “failed”.

Take “MSLSMPVPEGADAAAKEMALSDMIPYTVHYDDESVITKDDGLVQVIKLDGLYFESLTAEQIKQFERRRNTVLRSIANSDRGVYVHLIRRKVNLYPAGEGGTWFARRFNQAWRERYNKRSFYVNEIYISIVRNRFRQGAPGILDRAFSLVSGSKITKEDLESFEEQAKDVNEAANLVVQTLSGYGARKLRIQRRPEFVLDRVSRADAQVAVERFKMSWQEFQRSHGHHEVYSRDEVLDYLGEDFSEIGGFLHYLVNLEDERVPVTEMQLDRTLAVSYLDFKMLSNMMAVQNLSGTRAGAMLSMAEWPARTPSRMLDEFLKQPVEYIITQSFFFTDRISAEHDMRQERRRIAVNDREGVAEEDKDEITKGLQDLTRGRSVNGLHHLTMLVHVPATTQFADPIENKRQTIADLDGAVGLLKKAFVNLGVKPVREWFAMETFFWAQLPGQAQHFMGRRGKIKSGNFAGFASLHNFAVGKIDGNLWGPAIMPFETESGTAYYFSFHREMEGMVAGHTAFTADTGAGKTTLLAALIAMGDKAYPRVFWFDNREGAKVFMCAMGGQHTTLTVQGSTGWNPMKLPDTPENRAYLVELLTLMRTCYGGKIVPDDIDRFKKAVHENYALAYPDRRLLNVAWCFGQGELAKDMRVWHGANGIEGANWGVFDNEHDNIDLTNCRHYCYEMRQLIKDGTARPELPVVLSYPFHRIEQSMNGEPFILVLEEGQNLVKHAYWREKIDSYIMQIRRKNGLLVFVTPDAKYLYCETDSIQKQTATKIYLPNGEAKRTDLVDVLGLTPAEYEFVRDTPPENRTFLIRRGNESIKAKFDLSDMPEFIPVLSSNDKGVALMEEIIRELETDDPEQWVPVFMERALAKNTHNLKQKGA”: the protein production entry was “failed”. As for “MSLTASDDLPGVLIVEDGRLAAATLRIQLESLGYDVLGVFDNGEEAVRCAPDLRPDIALVDIMLCGALDGVETAARLAAGCNLPIIFITSSQDVETFQRAKRVNPFGYLAKPVAADTLHRSIEMAIHKKKLEEGHHHHHH”, the entry is “not failed”; as for “MLTVDQLALLFVLLLGAVVSVPVGDRFGLPAPVLMTLLGIGLAVADFVPNVDIPPDLILPALLPPLLYAAVRRTSWRQFTANKRPIFLLAVALVFVTTAVVALVAGAIVPGLPIAAAVALGALVAPPDPVAATAVAGQLGLPRRLVSILEGEGLFNDVTAIVLYHVAIAAAVSGTFSLPNAVLDLVLSAVVAVAVGLALGWAANRLMDLLDDVTLQIGLTLLVPYASYVLAEELHGSGVLAVLTTALFLAEYATDADDVMTRLAGHTFWNVVDTLVTGVAFGLIGLELHNALRTASGRWGEMLGWAAAIVAVVVLVRLAYLLPATWLTKRLHAKRDYDEEIPTSWRETVVMWWAGMRGVASAALALAIPLKMDDGSPFPDRDEIVFIAFGVIMGTLVLQGLTLPWLVKRLGVRADTGSEKAFEKALAIRAAKAAKRRLREIEDVEELPEELSEQLLRRAFDIGARISPDLGDEERREAHEQRVRRMKRVRRIQGEMMSAARHEVLAARSEPGADPEIVDRVLRHLDVRSLR”, “failed”; as for “MNLLPGFAYIEMESISNLTPLVMKTLAGFIAGIPKAELHLHIEGTLEPEMMLALGERNGVPLPYPDADAAKSAYHFSDLQSFLDIYYRATAVLVTEQDFYDLTIAYLQKAVSRKVCHAEIFFDPQSHIARGVPFETVVGGIGQALSDANGGLGISTKLIMCILRHLSEEDGNAVLEQAVRWKRWISGIGLDSSEKGNPPGKFRELFAKARHYGFFTVAHAGEEGNASSISEALDALHVIRIDHGVHCMEDPVLVERLRLDRIPLTICPLSNVRLNVFGSMREHNLKTMLDAGLCVTINSDDPAYFGGYVNENYLAAAEALNLDRNDIIRLARNSFEASVLSNVQKKLYLQKLDHYVDSFIQ”, “failed”. As to “MAVVSHGGFRAAARALDVSQGGLTKSIAALEQEYGVDLIERSAKGVLLTPKGAAFVPLARAIVEEAERAEGWLRAQSGELSTSVSLGVSIEPSIRLAPAVLRDFRKALPDTSVHLTQGVALDLLGALRENRIELAVIRLPRNFDSSDLKVQRLYQSEPVIVGRAGHPGAGAASLRELVKYDWVVVGDTSRQGAMNDDSIWELFDREGLGRPRFAAVCNSLLSIVAMLMESDALARVPRALLDHSLARRNLIPIPVAEPPVPYWIATVHKASRRLSPEAQTLNAMLSSYARISGALSPERRPGEP”, the protein production entry was “failed”. Regarding “RIVLRREFEGNGILDGIGKKIEEGDYDIVEYNSDKWYQIHKYYSGIDNSLKGVYINISTPPELLRGKIRYLDLEIDIAIRDSEIALLDEDELNKKSIYMPSS”, the protein production result is on record as “failed”. Take “MSPIALARLLTLAAVWGASFLFMRIIAPELGTVPTAFFRVSIACLGLIVILAAARVRWNFQGKLGACLVLGMINSGIPATFYSVAAQVLPAGYSAIFNATTPLMGVLVGVLFFREPMTLAKLCGIFLGLFGVGILSGAGPVALDMALLQGALACLAATTCYGFAGFLARRWISGLDSRLSALGSMLGATLMLTPLFGWSALTQPPASWGGWEVWLSLLGLGLLCTAFAYILYFRLLEEIGPVKASTVTFLIPVFGVLWGAWLLNEPLSMAHLYGGLLIGLALWLVLRPARS”: the protein production entry is given as “failed”. Regarding “MINDIILLLFVKIKRRLMMDKLFKLKENGTDVRTEVLAGLTTFFAMSYILFVNPQILSQTGMPAQGVFLATIIGAVAGTLMMAFYANLPYAQAPGMGLNAFFTFTVVFGLGYSWQEALAMVFICGIISLIITLTNVRKMIIESIPNALRSAISAGIGVFLAYVGIKNAGLLKFTIDPGNYTVVGEGADKAQATIAANSSAVPGLVSFNNPAVLVALAGLAITIFFVIKGIKGGIILSILTTTVLAIAVGLVDLSSIDFANNHVGAAFEDLKTIFGAALGSEGLGALVSDTARLPETLMAILAFSLTDIFDTIGTLIGTGEKVGIVATNGENHQSAKLDKALYSDLIGTTVGAIAGTSNVTTYVESAAGIGAGGRTGLTALVVAICFAISSFFSPLLAIVPTAATAPILIIVGIMMLGSLKNIHWDDMSEAVPAFFTSIFMGFSYSITQGIAVGFLTYTLTKLVKGQVKDVHVMIWILDALFILNYISMAL”, the protein production entry was “failed”. The entry for “MDNALTFVISTLCILALCYRFYGVFFVRKVLRADDSVVTPSHTFEDGKNYVPTKKWVNAGQHFAAIAAAGPLVGPVLAAQFGYLPGFLWLLVGCVVGGAVHDTVVLFASMKHNGKSLSNVAKAELGPVAGWCTGLAMLFIITITMAGLSMVVVHALERNPWGTFAVFMTIPIAIAVGLYERFTGNHKGATWVGIIAIMVAVLAGPYIQGTLLGDWLTLRVDSVALALPIYAFFASALPVWLLLTPRGYLSSFMKIGVFGALVVGVVIINPTIQFPALTDFIHGGGPVLAGPVWPFISITIACGAISGFHAFIGSGTTPKLVDKWSDIRPVAFGAMLAECMVAVLALVAATALHPADYFAINASPAAFASLGMEVVDLPHLSQEIGMDLAGRTGGAVTLAVGMTFIFTKLPWFATLSSYFFQFVIMFEAVFILTAVDSGTRVARYLIQDLGGDLYAPLKRLDWIPGSIGASVAACALWGYLLTSGDINSVWALFGVSNQLMASIGLIIGATIILRVAAKRIYMLTCLIPLAYLFVTVNYAGYWMIANVYLNTQARGYNPINAGISAIMMVLGLIILITAFGKWKTMLALPKSLRSGEVPAPSLP” is “failed”; for “MNVVRYTPWPGQAALQNEIKQVFDRFFEHNGDTDESAVVTAQWVPRVDIKEEPNQFVLYADLPGIDPADIEVQMDKGILSIKGERKTESSSQTEHFSRIERRYGSFHRRFALPDSADADGITASGSHGVLRILIPKQAATTPRRIQVGNAVSSDVALQSMLEHHHHHH” it is “not failed”. On to “MNRSDKWQQRVAQVAYRFNQQYQNQSLELPAEVQEMPIYREWISGILAGKIASPFWEMAQPQKNQHCLDIGCGVSFLIYPWRDWQAFFYGQDVSNVARDTLNSRGSQLNSKLFKGVELGAAHQLKYTLSYFDLAIATGFSCYFPLEYWTSVLQAVKRVLKPDGHFVFDILNAAHPQAEDWAVLETYLGAEVFLEPVTEWEKIINAAGAKVVGRQPGEFFDLYKLRLEHHHHHH”, for which the protein production entry is “failed”. As for “MCILGTTAKSLRLASVYGLSLFILFIVPLYLWQSTAAKMIAEVDWLDVATEGALFVLGMCWLMVIVSVRPSGRVTNLLIAGLSSYCLGCYLDLLDEIFIVKTLPIYNWFEKMPTPVGLLVLTGGLWLWRDEQTVVNRQLQTREQFHREHQLTDSLTLLNDAKAFEHHLVKQLSQNQSVGLLMLDVDYFHRYNKNQGVEEGDKLLSQLALWLSSTLRNQDLVCRYAGDRFVILLRGAIPSFVSVMAEQLQHGIKAFDCSATVVWTLPSPKMLPLQNSTCTAKEEAIALLQVLNQKMSQQKELRVSEAIAPSPFNTLDKSAASELN”, the entry is “failed”.

(Values after a protein production outcome set (Wang et al. 2014).)
